Test results as given in patent publication US20210369842A1 (Genmab, published 2021).

Assays:
Shuffle 3 = target: T1, Shuffle 3; assay: flow cytometry on transfected HEK293-T17 cells, 1 µg/mL antibody, APC-labeled AffiniPure F(ab')2 fragment as secondary
T1 construct: Expressed on transiently transfected HEK293-T17 cells; also called Human CD137 shuffle 3 (amino acids 115-138 of wild boar CD137); shuffle construct 3
T1 receptor chain: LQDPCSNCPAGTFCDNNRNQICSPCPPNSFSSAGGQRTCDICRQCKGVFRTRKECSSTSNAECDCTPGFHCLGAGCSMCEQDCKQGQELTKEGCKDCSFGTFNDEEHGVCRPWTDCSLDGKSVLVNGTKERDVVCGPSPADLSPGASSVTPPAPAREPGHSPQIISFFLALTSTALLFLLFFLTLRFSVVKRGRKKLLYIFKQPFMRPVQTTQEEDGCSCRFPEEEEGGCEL
Description: (§1) 3×10⁶ HEK293T-17 cells were seeded in T75 culture flasks (Greiner Bio-One, cat. no. 658175) in 20 mL RPMI 1640 GlutaMAX medium containing 10% FCS (Biochrom, cat. no. S 0115). After O/N incubation, cells were transiently […] with expression vectors encoding the shuffle constructs or the wild boar, African elephant or human CD137 downstream of a constitutively active human elongation factor-1 alpha (EF-1 alpha) promotor using TransIT®-LT1 Transfection Reagent, Mirus Bio (VWR International, cat. no. 731-0029), according to the manufacturer's instructions. The next day, cells were harvested using 1.5 mL Accutase (Sigma Aldrich, cat. no. A6964) (incubation at 37° C. for 5 min.) and flow cytometry was performed, essentially as described supra, to measure surface expression of the shuffle constructs and the human, African elephant and wild boar CD137 and to measure binding of the antibody clones to the different shuffle constructs. […] Binding of the different CD137 antibody clones to cells expressing the shuffle constructs was measured by incubation of the transduced cells with 1 μg/mL of the antibody clones, followed by APC-labeled AffiniPure F(ab′)2 Fragment (1:50 final dilution; Jackson, cat. no. 109-136-127).

Shuffle 4 = target: T2, Shuffle 4; assay: as above
T2 construct: Expressed on transiently transfected HEK293-T17 cells; also called Human CD137 shuffle 4 (amino acids 89-114 of wild boar CD137); shuffle construct 4
T2 receptor chain: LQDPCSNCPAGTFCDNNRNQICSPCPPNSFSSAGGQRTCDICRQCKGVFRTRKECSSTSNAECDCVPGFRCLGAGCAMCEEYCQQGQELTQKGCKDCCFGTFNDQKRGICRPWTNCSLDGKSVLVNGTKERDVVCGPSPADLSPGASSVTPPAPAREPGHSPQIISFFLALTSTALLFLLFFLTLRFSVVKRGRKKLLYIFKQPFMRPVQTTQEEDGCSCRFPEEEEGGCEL
Description: as §1

Shuffle 2 = target: T3, Shuffle 2; assay: as above
T3 construct: Expressed on transiently transfected HEK293-T17 cells; also called Human CD137 shuffle 2 (amino acids 139-161 of wild boar CD137); shuffle construct 2
T3 receptor chain: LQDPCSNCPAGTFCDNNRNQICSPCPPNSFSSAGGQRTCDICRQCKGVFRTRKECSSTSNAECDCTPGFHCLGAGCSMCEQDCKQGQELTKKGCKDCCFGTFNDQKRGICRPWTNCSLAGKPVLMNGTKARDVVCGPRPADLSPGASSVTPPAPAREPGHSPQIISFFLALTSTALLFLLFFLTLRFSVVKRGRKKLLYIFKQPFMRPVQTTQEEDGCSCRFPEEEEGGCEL
Description: as §1

Shuffle 1 = target: T4, Shuffle 1; assay: as above
T4 construct: Expressed on transiently transfected HEK293-T17 cells; also called Human CD137 shuffle 1 (amino acids 162-186 of wild boar CD137); shuffle construct 1
T4 receptor chain: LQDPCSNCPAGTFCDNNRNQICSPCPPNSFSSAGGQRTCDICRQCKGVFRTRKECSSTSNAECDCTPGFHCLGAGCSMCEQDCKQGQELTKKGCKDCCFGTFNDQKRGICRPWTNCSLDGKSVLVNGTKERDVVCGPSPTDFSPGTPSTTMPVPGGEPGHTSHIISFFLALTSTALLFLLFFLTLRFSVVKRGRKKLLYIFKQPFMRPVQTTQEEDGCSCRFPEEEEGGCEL
Description: as §1

[1] = target: T5, Wild boar (Sus scrofa) CD137 (wild boar (Sus scrofa)); assay: flow cytometry on transfected HEK293T-17 cells
T5 construct: Expressed on transfected HEK293T-17 cells; Amino acids 1-23 are stated as the predicted signal peptide; also called wild boar CD137
T5 chain: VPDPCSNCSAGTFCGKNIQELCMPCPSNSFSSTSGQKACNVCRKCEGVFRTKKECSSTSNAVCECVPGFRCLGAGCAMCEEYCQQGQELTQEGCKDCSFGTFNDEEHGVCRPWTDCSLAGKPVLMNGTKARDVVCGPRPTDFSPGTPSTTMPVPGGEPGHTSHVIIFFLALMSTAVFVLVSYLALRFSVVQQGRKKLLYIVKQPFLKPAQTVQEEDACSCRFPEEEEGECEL
Description: as §1

[2] = target: T6, Human CD137 shuffle 5 (amino acids 48-88 of African elephant CD137) (human CD137 with an African elephant …, UniProt Q07011 24-255); assay: flow cytometry on transfected HEK293T-17 cells
T6 construct: also called shuffle construct 5
T6 chain: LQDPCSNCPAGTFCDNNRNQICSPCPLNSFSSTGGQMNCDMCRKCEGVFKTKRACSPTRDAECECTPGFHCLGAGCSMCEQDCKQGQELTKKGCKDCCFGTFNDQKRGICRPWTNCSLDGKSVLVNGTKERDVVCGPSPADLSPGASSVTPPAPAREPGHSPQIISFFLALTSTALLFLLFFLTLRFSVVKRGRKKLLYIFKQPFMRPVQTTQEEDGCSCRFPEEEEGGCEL
Description: as §1

[3] = target: T7, African elephant (Loxodonta africana) CD137 (African elephant (Loxodonta africana)); assay: flow cytometry on transfected HEK293T-17 cells
T7 construct: Expressed on transfected HEK293T-17 cells; Amino acids 1-23 are stated as the predicted signal peptide; also called elephant CD137
T7 chain: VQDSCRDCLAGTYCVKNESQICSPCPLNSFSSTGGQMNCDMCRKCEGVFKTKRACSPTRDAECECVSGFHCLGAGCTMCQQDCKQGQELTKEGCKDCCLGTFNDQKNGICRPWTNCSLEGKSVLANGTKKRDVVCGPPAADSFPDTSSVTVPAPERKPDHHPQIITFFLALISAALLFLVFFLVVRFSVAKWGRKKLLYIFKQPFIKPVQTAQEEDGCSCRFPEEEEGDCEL
Description: as §1

Human CD137 = target: T8, Human CD137 (human, UniProt Q07011 24-255); assay: flow cytometry on HEK293T-17 cells transfected with human CD137, 1 µg/mL antibody
T8 construct: Amino acids 1-23 are stated as the predicted signal peptide; also called hCD137 wt; 4-1BB
Description: as §1

- binding result (Shuffle 3): binds
- binding result (Shuffle 4): binds
- binding result (Shuffle 2): binds
- binding result (Shuffle 1): binds
- binding result [1]: no binding (tested: 1 µg/mL)
- binding result [2]: no binding (tested: 1 µg/mL)
- binding result [3]: no binding (tested: 1 µg/mL)
- binding result (Human CD137): binds
B1: CD137-009 (chimeric rabbit/human CD137 antibody) (antibody, V domains shown)
VH: QSLEESGGRLVTPGTPLTLTCTVSGFSLNDYWMSWVRQAPGKGLEWIGYIDVGGSLYYASWAKGRFTISRTSTTVDLKMTSLTTEDTATYFCARGGLTYGFDLWGPGTLVTVSS
VL: DIVMTQTPASVSEPVGGTVTINCQASEDISSYLAWYQQKPGQRPKRLIYGASDLASGVPSRFSASGSGTEYALTISDLESADAATYYCHYYATISGLGVAFGGGTEVVVK
notes: also called antibody CD137-009; rabbit anti-CD137-009
